One assay concerns the target T1, miR2-FL-WT-T7 (mouse, UniProt Q80WQ6 1-827).
T1 construct: on MEF-DKO cells
T1 sequence: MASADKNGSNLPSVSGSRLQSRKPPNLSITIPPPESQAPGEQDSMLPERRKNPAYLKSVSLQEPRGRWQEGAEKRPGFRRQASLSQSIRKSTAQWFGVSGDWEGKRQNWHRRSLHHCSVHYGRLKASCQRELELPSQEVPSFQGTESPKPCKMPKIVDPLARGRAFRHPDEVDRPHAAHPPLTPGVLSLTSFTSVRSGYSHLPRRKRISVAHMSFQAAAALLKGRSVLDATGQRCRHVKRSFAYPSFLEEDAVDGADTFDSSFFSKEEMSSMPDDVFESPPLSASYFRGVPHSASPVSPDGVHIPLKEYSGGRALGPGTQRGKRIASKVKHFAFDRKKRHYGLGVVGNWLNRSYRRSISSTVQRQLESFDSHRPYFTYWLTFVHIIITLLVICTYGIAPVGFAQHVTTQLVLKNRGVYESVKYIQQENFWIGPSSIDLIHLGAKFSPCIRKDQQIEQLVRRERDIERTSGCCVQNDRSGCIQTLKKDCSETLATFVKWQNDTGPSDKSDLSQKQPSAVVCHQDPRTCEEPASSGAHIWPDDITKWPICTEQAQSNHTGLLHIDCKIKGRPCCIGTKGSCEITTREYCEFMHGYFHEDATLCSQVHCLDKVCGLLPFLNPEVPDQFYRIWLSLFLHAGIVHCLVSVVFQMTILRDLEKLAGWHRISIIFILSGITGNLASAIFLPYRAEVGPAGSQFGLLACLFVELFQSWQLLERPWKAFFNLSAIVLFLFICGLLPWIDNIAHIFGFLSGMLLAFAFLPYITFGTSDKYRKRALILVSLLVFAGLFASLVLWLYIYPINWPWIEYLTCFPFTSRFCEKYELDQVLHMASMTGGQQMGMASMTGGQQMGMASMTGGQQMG
As to the kind of experiment: FACS on MEF-DKO cells.

Assay [1] concerns the target T2, hiR2-FL-P533-T7 (deletion of P533) (human, UniProt Q6PJF5 1-856).
T2 construct: single residue deletion, not a substitution; on MEF-DKO cells
T2 sequence: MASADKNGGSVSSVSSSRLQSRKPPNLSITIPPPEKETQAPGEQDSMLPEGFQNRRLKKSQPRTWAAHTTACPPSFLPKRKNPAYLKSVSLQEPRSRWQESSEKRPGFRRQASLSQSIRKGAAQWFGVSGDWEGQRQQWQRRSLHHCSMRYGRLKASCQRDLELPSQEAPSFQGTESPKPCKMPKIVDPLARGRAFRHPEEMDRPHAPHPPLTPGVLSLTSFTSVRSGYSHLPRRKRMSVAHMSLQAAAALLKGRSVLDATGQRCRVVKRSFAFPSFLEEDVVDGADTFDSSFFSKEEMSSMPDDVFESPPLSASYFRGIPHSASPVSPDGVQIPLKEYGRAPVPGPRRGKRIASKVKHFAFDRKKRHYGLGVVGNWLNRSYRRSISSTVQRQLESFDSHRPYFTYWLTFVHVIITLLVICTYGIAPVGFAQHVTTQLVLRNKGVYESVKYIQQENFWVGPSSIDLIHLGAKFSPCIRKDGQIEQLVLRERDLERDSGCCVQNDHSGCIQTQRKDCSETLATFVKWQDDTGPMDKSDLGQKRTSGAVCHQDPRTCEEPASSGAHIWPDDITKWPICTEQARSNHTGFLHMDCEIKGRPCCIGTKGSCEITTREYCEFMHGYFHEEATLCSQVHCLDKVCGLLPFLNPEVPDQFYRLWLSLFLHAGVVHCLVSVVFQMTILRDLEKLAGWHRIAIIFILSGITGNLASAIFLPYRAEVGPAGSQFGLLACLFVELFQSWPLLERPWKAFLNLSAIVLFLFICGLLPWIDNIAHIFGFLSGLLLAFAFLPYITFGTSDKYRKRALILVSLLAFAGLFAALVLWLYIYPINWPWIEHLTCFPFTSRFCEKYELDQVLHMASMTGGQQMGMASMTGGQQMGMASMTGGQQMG
As to the kind of experiment: FACS on MEF-DKO cells.

Residue numbers refer to the chain shown, from its start.

B1: antibody 34 (antibody, V domains shown)
VH: QVTLKESGPGILQPSQTLSLTCSFSGFSLSTFSLGVGWIRQSSGKGLEWLAHIWWDDEKYYNPALKSRLTISKDTSKNQVFLKIANVDAADTATYYCARAYYSKSYYALDYWGQGTSVTVSS
VL: DIQMTQSPSSLSASLGERVSLTCRASQEISGYLSWLQQKPDGTIKRLIYAASTLDSGVPKRFSGSRSGSDYSLAISSLESEDFADYYCLQYANFPFTFGSGTKLEIK
notes: mouse IgG, kappa light chain; also called clone #34; purified antibody 34
Consider B1, for which the binding result (with miR2-FL-WT-T7; in assay [1]) was “no binding (tested: 3 µg/ml)” throughout.

B2: antibody 16 (antibody, V domains shown)
VH: QVTLKESGPGILQPSQTLSLTCSFSGFSLSTFALGVGWIRQPSGRGLEWLAHIWWDDDKYYNPALKSRLTISKDTSKNHVFLKIANVDTADTATYYCARITTYYYGMDYWGQGTSVTVSS
VL: DIVLSQSPATLSVTPGDSVSLFCRASQSIGNHLHWYQQESHASPRLLIKYASQSISGIPSRFSGSGSGTDFTLSINSVETEDFGMYFCQQSYNWPLTFGAGTKLELK
notes: mouse IgG, kappa light chain; also called clone #16; purified antibody 16
B2: the binding result (in the assay with miR2-FL-WT-T7; in assay [1]) was “no binding (tested: 3 µg/ml)” each time.

B3: antibody 3 (antibody, V domains shown)
VH: QVTLKESGPGILQPSQTLSLTCSFSGFSLTTFAMGIGWVRQPSGKGLEWLAHIWWDGEKYNNPVLKSRLTISKDTSKNQVFLRIANVDTPDTATYYCARISSIYYIIDNWGQGTSVTVSS
VL: B2 VL with S5T, D17H, F22S, G30S, H32N, Q38K, E39K, A42E, A51V
notes: mouse IgG, kappa light chain; also called clone #3; purified antibody 3
For B3, in assay [1], the binding result is “no binding (tested: 3 µg/ml)”.

B4: antibody 5 (antibody, V domains shown)
VH: QVTLKESGPGILQPSQTLSLTCSFSGFSLSTFGMGVGWIRQPSGKGLEWLAHIWWDDEKYYNSALKSRLTISKATSKNQAFLKIANVDTADTATYYCARISNYGSNYWYFNVWGTGTTVTVSS
VL: QVVLTQSPALMSASPGEKVTMTCSAGSSVSCMYWYQQKPGSSPRVLIYDTSNLASGVPARFTGSGSGTSYSLTISRMEAEDAASYYCQQWNSYPLTFGAGTKLELK
notes: mouse IgG, kappa light chain; also called clone #5; purified antibody 5
Consider B4, for which the binding result (with miR2-FL-WT-T7; in assay [1]) was “no binding (tested: 3 µg/ml)” each time.

B5: antibody 42 (antibody, V domains shown)
VH: B4 VH with F24L, M34R, S63P, A74D, A80V, K83R, S101Q, N111D
VL: LIVLTQSPAIMSASPGEKVTMTCGATSRISYMFWYQQKPGSSPRVLIYDTSNLASGVPVRFSGSGSGTSYSLTISRVEAEDVATYYCQQWNSYPLTFGAGTKLELK
notes: mouse IgG, kappa light chain; also called clone #42; purified antibody 42
As to B5, the binding result (with miR2-FL-WT-T7; in assay [1]) was “no binding (tested: 3 µg/ml)” in each case.

B6: antibody 43 (antibody, V domains shown)
VH: B4 VH with T3A, P42S, H52N, E58D, S63P, A74D, T75A, S101G, N111D
VL: B5 VL with L1Q, K18R, G24S, T26N, F33Y, V45L, V77M, V82A, Y86N, N91S
notes: mouse IgG, kappa light chain; also called clone #43; purified antibody 43
B6: the binding result (with miR2-FL-WT-T7; in assay [1]) was “no binding (tested: 3 µg/ml)” each time.

B7: antibody 44 (antibody, V domains shown)
VH: B4 VH with G44E, E58D, S63P, A74D, A80I, A85T, D91E, A98S, S101G, N111D
VL: QIVLTQSPAVMSASPGEKVTMTCTASSSVYYMYWYQQTPGSSPRLLIYDTSNLASGVPVRFSGSGSGTSYSLTISRMEAEDAATYYCQQWNTYPLTFGAGTKLELK
notes: mouse IgG, kappa light chain; also called clone #44; purified antibody 44
With B7, the binding result (with miR2-FL-WT-T7; in assay [1]) was “no binding (tested: 3 µg/ml)” throughout.

B8: antibody 22 (antibody, V domains shown)
VH: B4 VH with A80V
VL: B4 VL with C31Y, S84T
notes: mouse IgG, kappa light chain; also called clone #22; purified antibody 22
On to B8, for which the binding result (in the assay with miR2-FL-WT-T7; in assay [1]) was “no binding (tested: 3 µg/ml)” each time.

For the origin of these results see patent publication US20240287172A1 (SCIRHOM, published 2024).
